We go through 1 molecule from patent US20260167724A1.

Values joined by “and” are separate entries in the source; they are usually repeats but may differ in a detail not shown here. Equal entries are not always repeated.

The target in the test is CD3 on the Jurkat cell. The test is described as follows: cell-based or functional assay.

B1: Axl-WT×CD3-WT (bispecific antibody, part only; not given: constant regions and linkers, not shown: a dimerising Fc or GST)
heavy: EVQLVQSGAEVKKPGATVKISCKVSGYSFTGHTMNWIRQPPGKGLEWIGLIKPSNGGTSYNQKFKGRVTISADKSISTAYLQWSSLKASDTAMYYCAHGHYESYFAMDYWGQGTSVTVSS
light (part 1 of 2), part: DIQMTQSPSSLSASVGDRVTITCKASQDVSSAVAWYQQKPGQAPRLLIYWASTRHTGVPSRFSGSGSGTEFTLTISSLQPDDFATYYCQEHFSTPLTFGQGTKVEIK
light (part 2 of 2), part: QAVVTQEPSLTVSPGGTVTLTCRSSTGAVTTSNYANWVQQKPGQAPRGLIGGTNKRAPWTPARFSGSLLGGKAALTITGAQAEDEADYYCALWYSNLWVFGGGTKLTVLGEVQLVESGGGLVQPGGSLRLSCAASGFTFNTYAMNWVRQAPGKGLEWVARIRSKYNNYATYYADSVKDRFTISRDDSKNSLYLQMNSLKTEDTAVYYCVRHGNFGNSYVSWFAYWGQGTLVTVSS
With B1, the Luciferase Amount, pH 6.0, at CHO-Axl concentration (ng/mL) 0.00000 was 893 RLU and 937 RLU; the Luciferase Amount, pH 6.0, at CHO-Axl concentration (ng/mL) 0.01000 was 1230 RLU and 1330 RLU; the Luciferase Amount, pH 6.0, at CHO-Axl concentration (ng/mL) 0.1000 was 2310 RLU and 2000 RLU; the Luciferase Amount, pH 6.0, at CHO-Axl concentration (ng/mL) 1.000 was 10700 RLU and 10000 RLU. Moreover, the Luciferase Amount, pH 6.0, at CHO-Axl concentration (ng/mL) 10.00 is 44900 RLU and 46700 RLU; the Luciferase Amount, pH 6.0, at CHO-Axl concentration (ng/mL) 100.0 was 77200 RLU and 83200 RLU; the Luciferase Amount, pH 6.0, at CHO-Axl concentration (ng/mL) 1000.0 was 96200 RLU and 90400 RLU; the Luciferase Amount, pH 6.0, at CHO-Axl concentration (ng/mL) 10000.0 was 100000 RLU and 102000 RLU. For the same molecule, the Luciferase Amount, pH 7.4, at CHO-Axl concentration (ng/mL) 0.00000 was 2280 RLU and 2160 RLU; the Luciferase Amount, pH 7.4, at CHO-Axl concentration (ng/mL) 0.01000 was 2270 RLU and 2350 RLU; the Luciferase Amount, pH 7.4, at CHO-Axl concentration (ng/mL) 0.1000 was 3930 RLU and 3970 RLU; the Luciferase Amount, pH 7.4, at CHO-Axl concentration (ng/mL) 1.000 is 17700 RLU and 18400 RLU. Further, the Luciferase Amount, pH 7.4, at CHO-Axl concentration (ng/mL) 10.00 was 51800 RLU and 57100 RLU; the Luciferase Amount, pH 7.4, at CHO-Axl concentration (ng/mL) 100.0 is 94100 RLU and 99200 RLU; the Luciferase Amount, pH 7.4, at CHO-Axl concentration (ng/mL) 1000.0 was 113000 RLU and 112000 RLU; the Luciferase Amount, pH 7.4, at CHO-Axl concentration (ng/mL) 10000.0 was 135000 RLU and 139000 RLU.
